Experiment: yeast display, Sf9 membrane polyspecificity reagent, FACS + sequencing; frameworks hold sequencing errors
How it was run: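 Using colony PCR, genes from sorted yeast display clones were amplified, then sequenced on MiSeq at 2 × 250 and filtered by CDR length. The clones had been stained with 10% biotinylated, detergent-solubilized Sf9 membrane reagent for 1 hour at 4 °C and sorted by FACS into low and high (top ~1%) gates on anti-HA and streptavidin fluorescence. Polyreactivity labels come from the gate of origin.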

Row | Sequence | polyreactivity (PSR sort gate)
1 | QVQLVESGGGLVQAGGSLRLSCAASGSTFYFNAMGWYRQAPGKEREFVAAITYSGGSTNYADSVKGRFTISRDNAKNTVYLQMNSLKPEDTAVYYCAARRYSYYYWYDYWGQGTQVTVSS | high polyreactivity
2 | QVQLVESGGGLVQAGGSLRLSCAASGSTFYFNAMGWYRQAPGKERELVATISDNDGSTNYADSVKGRFTISRDNAKNTVYLQMNSLKPEDTAVYYCNADWYYYYEEDDYWGQGTQVTVSS | low polyreactivity
3 | QVQLVESGGGLVQAGGSLRLSCAASGSTFYFYAMGLFRQAPGKERELVAAITSSGGSTYYAESVKGRFTISRDNAKNTVYLQMISQKPEDTAVYYCATTYPQRYNGYDYWGQGTQVTVSS | low polyreactivity
4 | QVQLVESGGGLVQAGGSLRLSCAASGSTFYGKAMGWYRQAPGKERELVDTISWSGGSTYYADSVKGRFTISRDNAKNTVYLQMNSVKPEDTAVYYCNAEITTKSLVTRYSWYGGDYWRQGTQVTVSS | low polyreactivity
5 | QVQLVESGGGLVQAGGSLRLSCAASGSTFYGNAMGWYRQAPGKERELVGAIRWRGGRTYYADSVKGRFTISRDNANNTVYLQMNSLKPEDTAVYYCNALPGVSHTQYDRVGYWGQGTQVTVSS | high polyreactivity
6 | QVQLVESGGGLVQAGGSLRLSCAASGSTFYGNDMGWYRQAPGKERELVAAISSGGSTNYADSVKGRFTISRDNAKNTVYLQMNSLKPEDTAVYYCAADDTPDTISGSDYWGQGTQVTVSS | low polyreactivity
7 | QVQLVESGGGLVQAGGSLRLSCAASGSTFYGNDMGWYRQAPGKERELVAAISSGGSTNYADSVKGRFTISRDNAKNTVYLQMNSLKPEDTAVYYCAADDTPDTMYGSDYWGQGTQVTVSS | low polyreactivity
8 | QVQLVESGGGLVQAGGSLRLSCAASGSTFYGYTMGWYRRAPGKERELVAAITFRGGSTYYADSVKGRFTISRDNAKNTVYLQMNSLKPEDTAVYYCAAVGRYSRYPYSDTYGYWGQGTQVTVSS | high polyreactivity
9 | QVQLVESGGGLVQAGGSLRLSCAASGSTFYHYAMGWYRQAPGKERELVAAISTGGSTYYADSVKGRFTISRDNAKNTVYLQMNSLKPEDTAVYYCNARYIGGYGYWGQGTQVTVSS | low polyreactivity
10 | QVQLVESGGGLVQAGGSLRLSCAASGSTFYHYAMGWYRQAPGKERELVATISRRGGSTYYADSVKGRFTISRDNAKNTVYLQMNSLKPEDTAVYYCAAEYARSSRYKISSEMYYWGQGTQVTVSS | high polyreactivity
11 | QVQLVESGGGLVQAGGSLRLSCAASGSTFYINAMGWYRQAPGKERELVADITVRGGNTYYADSVKGRFTISRDNAKNTVYLQMNSLKPEDTAVYYCNALLSGGRAGFDYWGQVTQVTVSS | high polyreactivity
12 | QVQLVESGGGLVQAGGSLRLSCAASGSTFYINTMGWYRQAPGKEREFVAAITWSGGSTYYADSVKGRFTISRDNAKNTVYLQMNSLKPEDTAVYYCAADLYVGDMDYWGQGTQVTVAS | low polyreactivity
13 | QVQLVESGGGLVQAGGSLRLSCAASGSTFYIYAMGWYRQAPGKDRELVARISGSGGSTYYADSVKGRITISRDNAKNTVYLQMNSLKPEDTAVYYCAATKFNSFYWRYGYWGQGTQVTVSS | low polyreactivity
14 | QVQLVESGGGLVQAGGSLRLSCAASGSTFYIYAMGWYRQAPGKERELVAAITWSGSRTYYADSVKGRFTISRDNAKNTVYLQMNSLKPEDTAVYYCAARSYRNNRYKEDYWGQGTQVTVSS | high polyreactivity
15 | QVQLVESGGGLVQAGGSLRLSCAASGSTFYIYAMGWYRQATGKERELVAAIDWNDGSTYYADSVKGRFTISRDNAKNTVYLEMHSLKPEDTAVYYCAAAIYIYRDGTYDYWGQGTQETVSS | high polyreactivity
16 | QVQLVESGGGLVQAGGSLRLSCAASGSTFYIYVMGWYRQAPGKERELVARISSSGGSTYYADSVKGRFTISRDNAKNTVYLQMNSLKPEDTAVYYCNVDYGAWYDYWGQGTQVTVSS | low polyreactivity
17 | QVQLVESGGGLVQAGGSLRLSCAASGSTFYKNAMGWYRQAPGKERELVARISGRGGSTYYADSVKGRFTISRDNAKNTVYLQMNSLKPEDTAVYYCNALYRVFVGTYDYWGQGTQVTVSS | high polyreactivity
18 | QVQLVESGGGLVQAGGSLRLSCAASGSTFYKNSMGWYRQAPGKERELVATISASSTSTYYADSVKGRFTISRDNAKNTVYLQMNSLKPEATAVYYCSKVYVHGSTYGYYWYGYDYWGQGTQVTVSS | low polyreactivity
19 | QVQLVESGGGLVQAGGSLRLSCAASGSTFYKSTMGCYRQPPGKESELVPAISGSATTTYYADSVKGRFTISRDNAKNTVYLQMNSLKPEDTAVYYCAARRFSPGSSGHGYWGQGTQVNVSS | high polyreactivity
20 | QVQLVESGGGLVQAGGSLRLSCAASGSTFYKYAMGWYRQAPGKERELVAAITRSGGSTYYADSVKGRFTISRDNAKNTVYLQMNSLKPEDTAVYYCNADRKSRSKGVGYDYWGQGTQVTVSS | high polyreactivity
21 | QVQLVESGGGLVQAGGSLRLSCAASGSTFYKYAMGWYRQAPGKERELVASITWSGTSTYYADSVKGRFTISRDKAKNTVYLQMNSLKPEDTAVYYCNAGLESYYWGYTWEFDYWGQGTQVTVSS | low polyreactivity
22 | QVQLVESGGGLVQAGGSLRLSCAASGSTFYLNAMGWYRQAPGKEREFVAAIRGGGTSTRYADSVKGRFTISRDNAKNTVYLQMNSLKPEDTAVYFCAAPRVVYRGDYWGQGTQVTVSS | high polyreactivity

Row | Sequence | polyreactivity (PSR sort gate)
23 | QVQLVESGGGLVQAGGSLRLSCAASGSTFYLYAMGWYRQAPGKEREFVAAISWSGGRTYYADSVKGRFTISRDNAKNTVYLQMNSLKPEDTAVYYCAARRRYTWQYTRYDMGYWGQGTQVTVSS | low polyreactivity
24 | QVQLVESGGGLVQAGGSLRLSCAASGSTFYLYAMGWYRQAPGKERELVAAISRGGTTYYADSVKGRFTISRDNAKNTVYLQMNSLKPEETAVYYCNARYTSRRSRRPYYYWGQGTQVTVSS | high polyreactivity
25 | QVQLVESGGGLVQAGGSLRLSCAASGSTFYLYAMGWYRQAPGKERELVAAISWSGDSTYYADSVKGRFTISRDNAKNTVYLQMNSLKPEDTAVYYCAAEFYWGDLSYWGQGTQVSVSS | high polyreactivity
26 | QVQLVESGGGLVQAGGSLRLSCAASGSTFYLYAMGWYRQAPGKERELVAAISWSGGDTYYADSVKGRFTISRDNANNTVYLQMTSLKPEDSAVYYCAAEITYSYPGSPRRRDYWGQGTQVTVSS | low polyreactivity
27 | QVQLVESGGGLVQAGGSLRLSCAASGSTFYLYAMGWYRQAPGKERELVASITSGDGSTYYADSVKGRFTISRDNPKNTVYLQMNSLKPEDTAVYDCNAVLEGWFYQDDYWGQGTQVSVSS | low polyreactivity
28 | QVQLVESGGGLVQAGGSLRLSCAASGSTFYLYAMGWYRQAPGKERELVATITNGGGTNYADSVKGRFTISRDNAKNTVYLQMNSLKAEDTAVYYCAAKWYHRDGDYWGQGTQVTVSS | low polyreactivity
29 | QVQLVESGGGLVQAGGSLRLSCAASGSTFYLYAMGWYRQAPGKERELVAVITTDGSTTYADSVKGRFTISRDNAKNTVYLQMNSLKPEDTAVYYCAAYGGNGQYYSQYDYWGQGTQVTVSS | low polyreactivity
30 | QVQLVESGGGLVQAGGSLRLSCAASGSTFYLYGMGWYRQAPGKERELVAAITYSGGSTYYADSVKGRFTISRDNAKNTVYLQMNSLKPEDTAVYYCNARSQWRSSRFYYWGQGTQVTVSS | high polyreactivity
31 | QVQLVESGGGLVQAGGSLRLSCAASGSTFYNNAMGWYRQAPGKERELVAVITDSGGRTYYADSVKGRFTISRDNAKNTVYLQMNSLKPEDTAVYYCAVVAPGGGDDYWGQGTQVTVSS | low polyreactivity
32 | QVQLVESGGGLVQAGGSLRLSCAASGSTFYNYAMGWYRQAPGKERELVAAITSSGGSTYYADSVKGRFTISRDNAKNTVYLQMNSLKPEDTAVYYCAATRRVRRKSFTYRYDYWGQGTQVTVSS | high polyreactivity
33 | QVQLVESGGGLVQAGGSLRLSCAASGSTFYNYAMGWYRQAPGKERELVAAITSSGGSTYYADSVKGRFTISRDNAKNTVYLQMNSLKPEDTAVYYCNADDGYGQVHSISTYEMDYWGQGTQVTVSS | low polyreactivity
34 | QVQLVESGGGLVQAGGSLRLSCAASGSTFYNYVMGWYRQAPGKERELVAAINWSGCRTYYADSVKGRFTISRDNAKNTVYLQMNSLKPEDTAVYYCAAGYTLPWYKGFDYWGQGTQVTVSS | high polyreactivity
35 | QVQLVESGGGLVQAGGSLRLSCAASGSTFYPYAMGWYRQAPGKERELVAAIRFSGASTYYADSVKGRFTISRDNAKNTVYLQMNSLKPEDTAVYYCAARYVYSWPYRYGYWGQGTQVTVSS | low polyreactivity
36 | QVQLVESGGGLVQAGGSLRLSCAASGSTFYPYAMGWYRQAPGKERELVAAISISGGITYYADSVKGRFTISRDNAKNTVYLQMNSLKPEDTAVYYCAAEYLAVSGYWYDYWGQGTQVTVSS | high polyreactivity
37 | QVQLVESGGGLVQAGGSLRLSCAASGSTFYPYAMGWYRQAPGKERELVAAISSGGSTSYADSVKGRFTISRDNAKNTVYLQMNSLKPEDTAVYYCNASSPGAVPVYYYDYWGQGTQVTVSS | low polyreactivity
38 | QVQLVESGGGLVQAGGSLRLSCAASGSTFYPYDMGWYRQAPGKERELVATMTSTGGSTNYADSVKGRFTISRDNAKNTVYLQMNSLKPEDTAVYYCAKDWNDDQHSWDTPFDYWGQGTQVTVSS | low polyreactivity
39 | QVQLVESGGGLVQAGGSLRLSCAASGSTFYPYLIGWYRQAPGKERELLPAISGGGRTYYADSVKGRFTISRDNAKNTVYLQMNSLKPEDTAVYFCAARYTTYSGRGTRPAGIRYDYWGQGTQVTVSS | high polyreactivity
40 | QVQLVESGGGLVQAGGSLRLSCAASGSTFYRNAMGWYRPAPGKERELVAAINSTDSTNYADSVKGRFTISRDNAKNTVYLQMNSLKPEDTAVYYCAAVGDNLATAEYDYWGQGTQVTVSS | low polyreactivity
41 | QVQLVESGGGLVQAGGSLRLSCAASGSTFYRNAMGWYRQAPGKEREFVAAISFRGGGTYADSVKGRFTISRDNAKNTVYLQMNSLKPEDTAVYYCAADHLSYRRRYEYWGLGTQVTVSS | low polyreactivity
42 | QVQLVESGGGLVQAGGSLRLSCAASGSTFYRNAMGWYRQAPGKEREFVAAITTDDSTYYADSVKGRFTISRDNAKNTVYVQMNSLKPEDTAVYYCAAGLEGKATWAAVGGYDYWGQGTQVTVSS | low polyreactivity
43 | QVQLVESGGGLVQAGGSLRLSCAASGSTFYRNAMGWYRQAPGKERELVAAISRDGSTYYADSVKGRFTISRDNAKNTVYLQMNSLKPEDTAVYSCAKAGVTNGVVVDSVYAYDYWGQGTQVTVSS | low polyreactivity

Reference: the nanobody polyreactivity screen of Harvey et al. (2022)
